The chains are these.
B1: ActRIIB(20-134)-hFc (Fc fusion)
chain: GRGEAETRECIYYNANWELERTNQSGLERCEGEQDKRLHCYASWRNSSGTIELVKKGCWLDDFNCYDRQECVATEENPQVYFCCCEGNFCNERFTHLPEAGGPEVTYEPPPTAPT
notes: not shown: linker (if any) and human Fc (hFc)
B2: Soluble ActRIIB-Fc +15tail (Fc fusion, UniProt Q13705 19-134, looked up)
chain: SGRGEAETRECIYYNANWELERTNQSGLERCEGEQDKRLHCYASWANSSGTIELVKKGCWLDDFNCYDRQECVATEENPQVYFCCCEGNFCNERFTHLPEAGGPEVTYEPPPTAPT
notes: whole entry named; not shown: linker (if any) and Fc
B5: Growth and Differentiation Factor-11 (GDF11) (ligand, UniProt O95390 299-407, looked up)
chain: NLGLDCDEHSSESRCCRYPLTVDFEAFGWDWIIAPKRYKANYCSGQCEYMFMQKYPHTHLVQQANPRGSAGPCCTPTKMSPINMLYFNDKQQIIYGKIPGMVVDRCGCS
notes: also called BMP11

Test [1] has as its target T1, Activin A (UniProt P08476 311-426).
T1 construct: also called ActA
T1 sequence (looked up): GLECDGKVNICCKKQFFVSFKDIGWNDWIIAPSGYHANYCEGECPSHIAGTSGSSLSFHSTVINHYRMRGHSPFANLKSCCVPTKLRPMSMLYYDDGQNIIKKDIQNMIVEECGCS
In words: Biacore; steady-state affinity fit. How it is done: (§1) The affinity of GDF Traps and other ActRIIB-hFc proteins for several ligands was evaluated in vitro with a BiacoreTM instrument. Kd values were obtained by steady-state affinity fit due to the very rapid association and dissociation of the complex, which prevented accurate determination of kₒₙ and koff.
In general terms: SPR reads the build-up and loss of mass on a sensor chip optically.

For another test, the target named is T2, Activin B (UniProt P09529 293-407).
T2 sequence (looked up): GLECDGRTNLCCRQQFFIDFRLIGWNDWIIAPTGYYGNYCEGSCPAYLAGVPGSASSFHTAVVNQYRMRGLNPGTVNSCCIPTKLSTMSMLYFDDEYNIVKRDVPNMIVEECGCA
Nature of the test: Biacore; steady-state affinity fit. How it is done:
as §1

The target in test [2] is B5. Nature of the test: cell-based or functional assay.
The target of test [3] is T1, Activin A. Nature of the test: cell-based or functional assay.
The target of test [4] is T1, Activin A. Nature of the test: BiaCore; receptor-Fc captured by anti-hFc antibody, ligand injected. Here is the method: (§2) Binding of certain ActRIIB-Fc proteins and GDF Traps to ligands was tested in a BiaCore™ assay.
(§3) The ActRIIB-Fc variants or wild-type protein were captured onto the system using an anti-hFc antibody. Ligands were injected and flowed over the captured receptor proteins.

The target of test [5] is T1, Activin A. In words: BiaCore; ligand coupled, receptor flowed over; ligand coupled to the device, receptor flowed over (data from WO2006/012627).
In test [6] the target is B5. Nature of the test: Biacore; steady-state affinity fit. How it is done:
as §1

For test [7], the target named is B5. Nature of the test: BiaCore; receptor-Fc captured by anti-hFc antibody, ligand injected. How it is done: as §2, §3
The target in test [8] is T3, Growth and Differentiation Factor-8 (GDF8) (UniProt O14793 267-375).
T3 construct: also called myostatin
T3 sequence (looked up): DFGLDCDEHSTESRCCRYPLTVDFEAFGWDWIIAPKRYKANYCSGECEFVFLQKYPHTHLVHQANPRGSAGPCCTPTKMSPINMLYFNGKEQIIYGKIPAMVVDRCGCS
The test is described as above. How it is done: as §2, §3

Test [9] addresses B2. In words: BiaCore; ligand coupled, receptor flowed over; +15tail construct; ligand coupled to the device, receptor flowed over (data from WO2006/012627).
Test [10] deals with B1. Nature of the test: Biacore; steady-state affinity fit. Here is the method:
as §1

In test [11] the target is B1. In words: BiaCore; receptor-Fc captured by anti-hFc antibody, ligand injected. How it is done:
as §2, §3

In test [12] the target is B5. In words: BiaCore; ligand coupled, receptor flowed over; WT (64R) construct; ligand coupled to the device, receptor flowed over (data from WO2006/012627).
Test [13] deals with B5. In words: BiaCore; ligand coupled, receptor flowed over; legend: <1/5 WT binding.
Test [14] addresses T1, Activin A. In words: BiaCore; ligand coupled, receptor flowed over.

Here are results for seven molecules from patent US20160326228A1 (ACCELERON PHARMA, published 2016).

Bounds are passed on as bounds.

The Kd is the constant that tells how readily two partners part at equilibrium. As a reminder, the koff is a measure of how fast the partners let go of each other. The kon is a measure of how fast the partners come together. A higher kon goes with faster complex formation. Turning to B1, the Kd worked out at 16 pM with Activin A [1], 12 pM with Activin B and 26.8 pM in the test with Activin A [4]. Also, the results for the “IC50 (ng/mL), A-204 reporter gene assay, conditioned media” value (in test [2]; with Activin A [3]) were 45 ng/mL and 22 ng/mL, respectively. In the test with Activin A [4], this molecule showed a koff of 0.000159 s⁻¹. The molecule also returned a kon with Activin A [4] of 5.94e+06 M⁻¹ s⁻¹.
B2: the Kd with Activin A [5] was ~26000 pM.

B3: ActRIIB(L79 25-131)-hFc (Fc fusion)
chain: ETRECIYYNANWELERTNQSGLERCEGEQDKRLHCYASWRNSSGTIELVKKGCWLDDFNCYDRQECVATEENPQVYFCCCEGNFCNERFTHLPEAGGPEVTYEPPPT
notes: also called ActRIIB(25-131)-hFc; not shown: linker (if any) and human Fc (hFc)
With B3, the Kd in test [6] is 31 pM; with Activin A [1] it was 18 pM; with Activin B it was 12 pM.

B4: ActRIIB(L79D 20-134)-hFc (Fc fusion)
chain: GRGEAETRECIYYNANWELERTNQSGLERCEGEQDKRLHCYASWRNSSGTIELVKKGCWDDDFNCYDRQECVATEENPQVYFCCCEGNFCNERFTHLPEAGGPEVTYEPPPTAPTGGGTHTCPPCPAPELLGGPSVFLFPPKPKDTLMISRTPEVTCVVVDVSHEDPEVKFNWYVDGVEVHNAKTKPREEQYNSTYRVVSVLTVLHQDWLNGKEYKCKVSNKALPVPIEKTISKAKGQPREPQVYTLPPSREEMTKNQVSLTCLVKGFYPSDIAVEWESNGQPENNYKTTPPVLDSDGSFFLYSKLTVDKSRWQQGNVFSCSVMHEALHNHYTQKSLSLSPGK
notes: also called GDF Trap
Turning to B4, the Kd in [6] was 123 pM; with Activin A [1], 13500 pM; in the test with Activin B it was 788 pM; in test [7], 655 pM; in [8] it was 2150 pM. Besides, the koff in test [7] worked out at 0.000439 s⁻¹; in test [8], 0.00083 s⁻¹.
Regarding B5, the Kd in [9] is 19000 pM; in the test with ActRIIB(20-134)-hFc [10] it was 36 pM; with ActRIIB(20-134)-hFc [11] it was 84.2 pM. In the test with ActRIIB(20-134)-hFc [11], this molecule came in with a koff of 0.000113 s⁻¹. This molecule had a kon in the test with ActRIIB(20-134)-hFc [11] of 1.34e+06 M⁻¹ s⁻¹.

B6: Soluble ActRIIB-Fc WT (64R) (Fc fusion)
chain: GRGEAETRECIYYNANWELERTNQSGLERCEGEQDKRLHCYASWRNSSGTIELVKKGCWLDDFNCYDRQECVATEENPQVYFCCCEGNFCNERFTHLPEA
notes: as for B2
Regarding B6, the equilibrium dissociation constant (Kd) in [12] was determined as 86000 pM.

B7: Soluble ActRIIB-Fc variant K74I (Fc fusion)
chain: GRGEAETRECIYYNANWELERTNQSGLERCEGEQDKRLHCYASWANSSGTIELVIKGCWLDDFNCYDRQECVATEENPQVYFCCCEGNFCNERFTHLPEA
notes: as for B2
B7: the “binding relative to WT” value in test [13] was < 0.2 fold. Besides, in the test with Activin A [14], the binding result is “no binding”.
